In publication PMC13047697:
Where two headings read alike, the source gives them in different places.

Columns and labels:
Experiment in all cases: native MS
[1] = target: T1, SsoSSB WT (Saccharolobus solfataricus DSM 1617 …, UniProt Q97W73 1-148)
T1 sequence: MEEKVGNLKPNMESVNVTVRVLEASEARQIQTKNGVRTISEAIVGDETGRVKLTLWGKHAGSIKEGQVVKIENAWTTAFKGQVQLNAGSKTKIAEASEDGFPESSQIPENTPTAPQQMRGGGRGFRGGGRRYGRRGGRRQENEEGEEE

[2] = target: T1, SsoSSB WT; remark: listed apart in the source
[3] = target: T1, SsoSSB WT; remark: listed apart in the source
[4] = target: T1, SsoSSB WT; remark: listed apart in the source

B1: T30 (ssDNA)
DNA: TTTTTTTTTTTTTTTTTTTTTTTTTTTTTT
With B1 the Kd [1] was 253 nM, the Kd [2] was 197 nM and the Kd [3] was 209 nM. It also gave a Kd [4] of 266 nM.

B2: T15 (ssDNA)
DNA: TTTTTTTTTTTTTTT
B2 was tested, and the Kd [1] was 1240 nM, the Kd [2] was 1940 nM and the Kd [3] was 2080 nM. The Kd [4] was 1320 nM.
